Assay results from patent publication US20090202574A1, “METHODS OF IMMUNE OR HAEMATOLOGICAL ENHANCEMENT, INHIBITING TUMOUR FORMATION OR GROWTH, AND TREATING OR PREVENTING CANCER” (priority 2004, published 2009).

B1: natural bLf: bovine lactoferrin extract from skim milk with natural levels of iron-saturation of approximately 5 to 15% (protein, UniProt P24627 20-708, looked up)
Lactotransferrin: APRKNVRWCTISQPEWFKCRRWQWRMKKLGAPSITCVRRAFALECIRAIAEKKADAVTLDGGMVFEAGRDPYKLRPVAAEIYGTKESPQTHYYAVAVVKKGSNFQLDQLQGRKSCHTGLGRSAGWIIPMGILRPYLSWTESLEPLQGAVAKFFSASCVPCIDRQAYPNLCQLCKGEGENQCACSSREPYFGYSGAFKCLQDGAGDVAFVKETTVFENLPEKADRDQYELLCLNNSRAPVDAFKECHLAQVPSHAVVARSVDGKEDLIWKLLSKAQEKFGKNKSRSFQLFGSPPGQRDLLFKDSALGFLRIPSKVDSALYLGSRYLTTLKNLRETAEEVKARYTRVVWCAVGPEEQKKCQQWSQQSGQNVTCATASTTDDCIVLVLKGEADALNLDGGYIYTAGKCGLVPVLAENRKSSKHSSLDCVLRPTEGYLAVAVVKKANEGLTWNSLKDKKSCHTAVDRTAGWNIPMGLIVNQTGSCAFDEFFSQSCAPGADPKSRLCALCAGDDQGLDKCVPNSKEKYYGYTGAFRCLAEDVGDVAFVKNDTVWENTNGESTADWAKNLNREDFRLLCLDGTRKPVTEAQSCHLAVAPNHAVVSRSDRAAHVKQVLLHQQALFGKNGKNCPDKFCLFKSETKNLLFNDNTECLAKLGGRPTYEEYLGTEYVTAIANLKKCSTSPLLEACAFLTR
B2: bovine lactoferrin: bovine lactoferrin as reported in WO 03/099323, compared with recombinant human lactoferrin (protein)
chain: B1 Lactotransferrin
modifications: Bovine Lactoferrin
notes: bovine lactoferrin as reported in WO 03/099323, compared with recombinant human lactoferrin

Legend:
EL-4 target cells = assay: Anti-tumour CTL and/or NK cell cytolytic activity of splenocytes against EL-4 target cells; settings: Example 1; splenocytes at day 42; vs control diet
Experimental: Splenocytes were harvested 28 days following tumour cell injection, as specified. They were incubated at 37° C. with EL-4 target cells in graded E:T ratios in 96-well round-bottom plates. After a 4-hour incubation, 50 μl of supernatant was collected, and lysis was measured using the Cyto Tox 96 Assay Kit (Promega, Madison, Wis., USA). Background controls for non-specific target and effector cell lysis were included. After background subtraction, percentage of cell lysis was calculated using the formula: 100× (experimental-spontaneous effector-spontaneous target/maximum target-spontaneous target).

EL-4 tumours = assay: EL-4 tumour growth in mice (s.c. flank tumour model); assay type: in vivo, C57BL/6 mice; settings: Example 1; oral diet; day 42; vs control diet
IL-18 [1] = assay: IL-18 production by cultured intestinal loops; assay type: cell-based, mice; settings: Example 20; 400 and 800 μg/ml; 48 h; vs bovine serum albumin control protein
Experimental: Cytokine levels in the supernatants of homogenates of the small intestine were determined using a “sandwich” ELISA kit (Endogen, Woburn, Mass.). They were detected within standard curve ranges of 15-375 pg/ml for IL-4, 0-2450 pg/ml for IL-5, 15-1000 pg/ml for TNF-α, 0-3000 pg/ml for IFN-γ, 37-3000 pg/ml for IL-10, 31.3-2000 pg/ml for IL-12, and 31.3-2000 pg/ml for IL-18, respectively. Quantification of nitrite, indicative of NO production, was carried out by the Griess reaction (Sigma, USA). The results are expressed as the mean nitrite concentration (μM)±SD.
100% Fe-saturated Lf, natural Lf (less than 20% iron saturated), and bovine serum albumin control were added at 400 and 800 μg/ml to intestinal loops (2.5 cm segments of the small intestine) prepared from healthy 6 to 7 week-old female mice, which were kept in culture for 48 h. IL-18 levels released by the intestinal loops, and present in the supernatants of homogenates of the small intestine were determined using a “sandwich” ELISA kit as described above.

IL-18 [2] = settings: WO 03/099323, cited from earlier work

| Molecule | anti-tumour CTL and/or NK cell activity of splenocytes (EL-4 target cells) | inhibition in tumour size (EL-4 tumours) | increase in the levels of IL-18 in the intestine (IL-18 [1]) | serum levels of IL-18 (IL-18 [2]) | intestinal IL-18 levels (IL-18 [2]; compared with recombinant human lactoferrin) |
| --- | --- | --- | --- | --- | --- |
| B1 | slightly enhanced | 11% | ~2 fold |  |  |
| B2 |  |  |  | did not increase | lesser increase |
